Experimental data reported in patent US20160136234A1.

Columns and labels:
Experiment in all cases: cell-based or functional assay
[1] = target: T1, TAO3 (h) (human) (UniProt Q9H2K8)
T1 sequence (looked up): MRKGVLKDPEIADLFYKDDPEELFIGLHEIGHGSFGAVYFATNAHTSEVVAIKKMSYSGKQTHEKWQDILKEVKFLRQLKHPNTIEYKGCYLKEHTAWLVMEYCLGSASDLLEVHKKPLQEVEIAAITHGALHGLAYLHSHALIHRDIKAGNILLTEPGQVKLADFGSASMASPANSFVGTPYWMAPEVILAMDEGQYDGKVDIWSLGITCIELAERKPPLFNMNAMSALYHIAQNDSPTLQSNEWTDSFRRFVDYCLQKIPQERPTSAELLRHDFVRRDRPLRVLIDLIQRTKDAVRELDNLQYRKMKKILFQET

[2] = target: T2, PDK1 (h) (human) (UniProt O15530)
T2 sequence (looked up): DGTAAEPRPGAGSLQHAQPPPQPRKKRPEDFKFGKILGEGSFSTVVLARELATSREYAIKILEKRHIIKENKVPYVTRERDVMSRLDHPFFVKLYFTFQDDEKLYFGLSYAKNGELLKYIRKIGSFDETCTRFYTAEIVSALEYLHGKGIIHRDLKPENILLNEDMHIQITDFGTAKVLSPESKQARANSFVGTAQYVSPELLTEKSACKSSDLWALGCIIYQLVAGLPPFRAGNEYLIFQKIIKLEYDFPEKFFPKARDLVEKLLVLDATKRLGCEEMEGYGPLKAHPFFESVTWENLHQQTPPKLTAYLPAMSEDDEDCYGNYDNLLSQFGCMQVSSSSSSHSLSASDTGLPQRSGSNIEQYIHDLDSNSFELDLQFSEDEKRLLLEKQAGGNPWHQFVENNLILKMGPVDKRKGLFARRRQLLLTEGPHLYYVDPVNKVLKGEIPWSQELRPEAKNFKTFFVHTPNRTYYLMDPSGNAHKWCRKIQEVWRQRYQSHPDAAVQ

[3] = target: cKit(D816H) (h) (human) (UniProt P10721)
cKit(D816H) (h) (human), sequence (P10721 544-976 D816H): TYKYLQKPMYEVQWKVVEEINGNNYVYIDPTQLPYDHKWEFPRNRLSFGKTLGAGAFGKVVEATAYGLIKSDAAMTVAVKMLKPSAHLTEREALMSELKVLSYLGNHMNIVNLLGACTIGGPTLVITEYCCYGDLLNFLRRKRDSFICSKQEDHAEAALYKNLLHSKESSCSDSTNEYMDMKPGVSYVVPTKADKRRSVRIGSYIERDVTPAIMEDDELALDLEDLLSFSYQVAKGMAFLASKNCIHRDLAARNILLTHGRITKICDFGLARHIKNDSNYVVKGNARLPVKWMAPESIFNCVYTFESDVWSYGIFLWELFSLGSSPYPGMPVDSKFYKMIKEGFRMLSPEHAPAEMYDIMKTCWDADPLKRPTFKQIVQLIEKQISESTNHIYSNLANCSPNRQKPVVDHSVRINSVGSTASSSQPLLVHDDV

% activity at 100 µM [1]: 77%
% activity at 100 µM [2]: 135%
% activity at 100 µM [3]: 126%
Substance: MMI-0300 (peptide)
